Measured values as given in patent US20160159910A1 (Genentech, published 2016).

T1: human B7-H4 (human, UniProt Q7Z7D3 29-282)
T1 construct: On stably transfected 293 cells (recombinant) or on MX-1 / SKBR3 tumor cells (endogenous); the cell is named under assay; also called huB7-H4; hB7-H4
T1 sequence: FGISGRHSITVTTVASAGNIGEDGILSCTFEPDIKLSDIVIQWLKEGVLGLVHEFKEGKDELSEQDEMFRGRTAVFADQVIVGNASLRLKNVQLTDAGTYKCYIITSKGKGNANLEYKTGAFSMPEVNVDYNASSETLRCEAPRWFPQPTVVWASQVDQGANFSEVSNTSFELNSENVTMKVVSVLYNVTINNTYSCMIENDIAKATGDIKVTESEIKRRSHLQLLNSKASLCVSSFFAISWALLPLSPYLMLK

T2: mouse B7-H4 (mouse, UniProt Q7TSP5 29-283)
T2 construct: On stably transfected 293 cells; also called muB7-H4; recombinant mouse B7-H4
T2 sequence: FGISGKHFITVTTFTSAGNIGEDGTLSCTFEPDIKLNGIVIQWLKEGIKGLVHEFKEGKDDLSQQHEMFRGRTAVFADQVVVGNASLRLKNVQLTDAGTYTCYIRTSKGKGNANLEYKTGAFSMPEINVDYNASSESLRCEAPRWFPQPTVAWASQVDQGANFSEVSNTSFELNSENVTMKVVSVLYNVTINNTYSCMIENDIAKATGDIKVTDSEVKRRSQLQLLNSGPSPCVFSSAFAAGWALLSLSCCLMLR

T3: cynomolgus monkey B7-H4 (cynomolgus monkey, UniProt Q7Z7D3 29-282 (human entry))
T3 construct: On stably transfected 293 cells; also called cyno B7-H4; recombinant cynomolgus monkey B7-H4
T3 chain: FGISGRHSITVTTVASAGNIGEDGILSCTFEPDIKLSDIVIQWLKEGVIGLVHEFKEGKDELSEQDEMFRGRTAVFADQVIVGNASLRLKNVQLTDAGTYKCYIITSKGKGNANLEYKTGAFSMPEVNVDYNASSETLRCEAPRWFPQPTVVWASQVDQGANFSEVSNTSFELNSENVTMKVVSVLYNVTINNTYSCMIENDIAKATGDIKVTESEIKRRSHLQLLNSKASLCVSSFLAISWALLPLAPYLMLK

T4: human B7-H4 S114A glycosylation mutant (human, UniProt Q7Z7D3 29-282)
T4 construct: Full-length human B7-H4 membrane construct with S114 changed to alanine to prevent N-linked glycosylation at N112-S114; transiently expressed on 293 cells; also called mutated S114A human B7-H4; recombinant human B7-H4 S114A
T4 sequence: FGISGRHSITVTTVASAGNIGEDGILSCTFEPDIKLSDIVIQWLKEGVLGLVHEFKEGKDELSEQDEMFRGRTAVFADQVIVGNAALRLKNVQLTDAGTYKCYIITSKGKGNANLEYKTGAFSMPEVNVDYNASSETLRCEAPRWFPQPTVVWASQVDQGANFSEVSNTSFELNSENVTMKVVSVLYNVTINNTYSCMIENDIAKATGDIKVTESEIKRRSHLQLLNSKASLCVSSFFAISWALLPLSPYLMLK

T5: rat B7-H4 (rat, UniProt Q501W4 29-282)
T5 construct: On stably transfected 293 cells; also called recombinant rat B7-H4
T5 sequence: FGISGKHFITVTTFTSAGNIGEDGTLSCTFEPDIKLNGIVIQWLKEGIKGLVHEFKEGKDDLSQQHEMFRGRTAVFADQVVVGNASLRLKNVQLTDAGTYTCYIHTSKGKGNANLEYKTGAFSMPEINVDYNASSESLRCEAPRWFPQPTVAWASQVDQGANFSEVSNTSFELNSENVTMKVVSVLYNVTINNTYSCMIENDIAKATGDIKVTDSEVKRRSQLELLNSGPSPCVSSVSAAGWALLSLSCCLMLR

T6: soluble B7-H4 (Ig-V; G28-V157)-Fc fusion protein (human, UniProt Q7Z7D3 28-157)
T6 construct: Engineered soluble protein; also called B7-H4-(Ig-V)-hIgG1 Fc fusion protein; soluble B7-H4 IgV-Fc fusion protein; not shown: human IgG1 Fc
T6 sequence: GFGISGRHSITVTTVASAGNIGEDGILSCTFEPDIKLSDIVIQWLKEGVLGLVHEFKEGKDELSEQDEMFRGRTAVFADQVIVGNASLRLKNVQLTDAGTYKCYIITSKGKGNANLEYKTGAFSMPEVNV


How the values were obtained:
[1] = molecular target: T1, human B7-H4; experiment: Scatchard analysis, 125I-antibody radioligand cell binding on MX-1 tumor cells
Procedure: (§1) Competition assay mixtures of 50 μL volume containing a fixed concentration of [I¹²⁵] labeled antibody and decreasing concentrations of serially diluted, unlabeled antibody were placed into 96-well plates. […] Cells were detached from the flask using Sigma Cell Dissociation Solution and were washed with binding buffer, which consisted of Dulbecco's Modified Eagle Medium (DMEM) with 1% bovine serum albumin (BSA), […] and 0.1% sodium azide. The washed cells were added to the 96 well plates at a density of 100,000 cells in 0.2 mL of binding buffer. The final concentration of the [I¹²⁵] labeled antibody in each well was ˜250 pM. The final concentration of the unlabeled antibody in the competition assay ranged from 1000 nM through ten 2-fold dilution steps to a 0 nM buffer-only assay. Competition assays were carried out in triplicate. Competition assays were incubated for 2 hours at room temperature. After the 2-hour incubation, the competition assays were transferred to a Millipore Multiscreen filter plate (Billerica, Mass.) and washed 4 times with binding buffer to separate the free from bound [I¹²⁵] labeled antibody. The filters were counted on a Wallac Wizard 1470 gamma counter (PerkinElmer Life and Analytical Sciences Inc.; Wellesley, Mass.). The binding data was evaluated using NewLigand software (Genentech), which uses the fitting algorithm of Munson and Robard to determine the binding affinity of the antibody (Munson and Robard 1980).

[2] = molecular target: T1, human B7-H4; experiment: Scatchard analysis on MX-1 cells; the table puts the affinity of 10 nM beside the parent antibody's 4.9 nM
Procedure: as §1, with “After the 2-hour incubation, the competition assays were transferred to a Millipore Multiscreen filter plate (Billerica, Mass.) and washed 4 times with binding buffer to separate the free from bound [I¹²⁵] labeled antibody.” left out

[3] = molecular target: T2, mouse B7-H4; experiment: FACS titration on 293 cells expressing recombinant mouse B7-H4 (panel '293-mouse B7-H4', upper block), geometric mean fluorescence
Procedure: (§2) The fluorescent signal was acquired with a BD FACS Calibur and EC₅₀ values were determined with the Graph Pad program Prism 4.

[4] = molecular target: T1, human B7-H4; experiment: FACS titration on MX-1 tumor cells, endogenous human B7-H4 (panel 'MX-1 tumor cell line', upper block), geometric mean fluorescence
Procedure: as §2

[5] = molecular target: T3, cynomolgus monkey B7-H4; experiment: FACS titration on 293 cells expressing recombinant cynomolgus B7-H4 (panel '293-cyno B7-H4', upper block), geometric mean fluorescence
Procedure: as §2

[6] = molecular target: T1, human B7-H4; experiment: FACS titration on 293 cells expressing recombinant human B7-H4 (panel '293-human B7-H4', upper block), Dylight-650 goat anti-human IgG, geometric mean fluorescence
Procedure: as §2

[7] = molecular target: T4, human B7-H4 S114A glycosylation mutant; experiment: FACS on 293 cells transfected with S114A human B7-H4 (glycosylation independence)
[8] = molecular target: T1, human B7-H4; experiment: Scatchard analysis, 125I-antibody radioligand cell binding on stably transfected 293 cells
Procedure: as §1

[9] = molecular target: T3, cynomolgus monkey B7-H4; experiment: as above
Procedure: as §1

[10] = molecular target: T5, rat B7-H4; experiment: Scatchard on stable cell line expressing recombinant B7-H4 (footnote 1 of the table)
Procedure: Competition assay mixtures of 50 μL volume containing a fixed concentration of [I¹²⁵] labeled antibody and decreasing concentrations of serially diluted, unlabeled antibody were placed into 96-well plates. […] Cells were detached from the flask using Sigma Cell Dissociation Solution and were washed with binding buffer, which consisted of Dulbecco's Modified Eagle Medium (DMEM) with 1% bovine serum albumin (BSA), 300 mM human IgG and 0.1% sodium azide. The washed cells were added to the 96 well plates at a density of 100,000 cells in 0.2 mL of binding buffer. The final concentration of the [I¹²⁵] labeled antibody in each well was ˜250 pM. The final concentration of the unlabeled antibody in the competition assay ranged from 1000 nM through ten 2-fold dilution steps to a 0 nM buffer-only assay. Competition assays were carried out in triplicate. Competition assays were incubated for 2 hours at room temperature.

[11] = molecular target: T2, mouse B7-H4; experiment: Scatchard analysis, 125I-antibody radioligand cell binding on stably transfected 293 cells
Procedure: as §1

[12] = molecular target: T5, rat B7-H4; experiment: as above
Procedure: as §1

[13] = molecular target: T6, soluble B7-H4 (Ig-V; G28-V157)-Fc …; experiment: FACS competition: soluble B7-H4 (Ig-V)-Fc against dye-labelled 22C10 on 293 cells expressing human B7-H4

Row | Kd [1] [nM] | Fold to Parent mAb [2] | EC50 [3] [µg/mL] | EC50 [4] [µg/mL] | EC50 [5] [µg/mL] | EC50 [6] [µg/mL] | fold binding over the isotype control [7] [fold] | Kd [8] [nM] | Kd [9] [nM] | binding result [10] | Kd [11] [nM] | Kd [12] [nM] | binding result [13] | Binder
1 | 10 | 0.49 | 0.97 | 0.73 | 1.19 | 1.44 | – | – | – | – | – | – | – | humanized 22C10.v2.8 (antibody, V domains shown, Assessed in the form of an IgG produced in 293 cells; also called hu22C10.v2.8; h22C10.v2.8) VH: EVQLVQSGAEVKKPGASVKVSCKASGYTFTNFWIHWVRQAPGQGLEWIGEIDPSDSYTNYNQKFKGRVTITRDTSTSTAYLELSSLRSEDTAVYYCAREITTVDYWGQGTLVTVSS VL: DIQMTQSPSSLSASVGDRVTITCSATSSISYMHWYQQKPGKAPKGLIYDTSKLAHGVPSRFSGSGSGTDFTLTISSLQPEDFATYYCHQRRSYPFTFGQGTKVEIK
2 | – | – | – | – | – | – | 100 | 4.8 | 3.1 | no binding | – | – | – | chimeric antibody ch32D6 (antibody, human IgG1, V domains shown, also called antibody 32D6) VH: EVQLQQSGPDLVKPGASVKISCKASGYSFTGYYIHWMKQSHGKSLEWIGRVNPNNGDPIYNQKFRGKAILTVDQSSNTAYMELRSLTSEASAVYYCARVLFYYGSPFAYWGQGTLVTVSA VL: DIVMTQSPSSLIVTAGEKVTMSCRSSQSLFDSGSQRNYLTWFHQKPGRPPKLLIYWASTRESGVPDRFTGSGSGTDFTLTISSVQTEDLAVYFCQNDYSFPFTFGSGTKLEEK
3 | 4.9 | – | 0.66 | 0.35 | 0.41 | 1.2 | 100 | 6.6 | 4.6 | – | 18.3 | 5.7 | no binding | chimeric antibody ch22C10 (antibody, human IgG1, V domains shown, also called ch2210; parental 22C10 antibody) VH: QVQLQQPGAELVKPGTSVKLSCKASGYTFTNFWIHWVIQRPGQGLEWIGEIDPSDSYTNYNQKFKGKATLTVDKSSNTAYMQLSSLTSEDSAVYYCSREITTVDYWGQGTTLTVSS VL: QIVLTQSPTIMSASPGEKVTLTCSATSSISYMHWYQQKPGTSPKGWIYDTSKLAHGVPARFSGSGSGTSYSLTISSMEAEDAATYYCHQRRSYPFTFGSGTKLEIK
